Assay [1] deals with T1, human PD-1 on transfected CHO-K1 cells (human, UniProt Q15116 25-288).
T1 construct: also called Human PD-1 transfected CHO-K1 cells
Kind of assay: cell-based blocking assay, flow cytometry: binding of FITC labeled human PD-L1-Fc to human PD-1 transfected CHO-K1 cells is blocked. (In general: In flow cytometry, cells or beads pass a laser one at a time.)

The target of assay [2] is T2, His tagged human PD-1 (human, UniProt Q15116 25-170).
T2 construct: also called His tagged human PD-I; PD-1 protein
T2 sequence (Q15116 25-170 limits assumed): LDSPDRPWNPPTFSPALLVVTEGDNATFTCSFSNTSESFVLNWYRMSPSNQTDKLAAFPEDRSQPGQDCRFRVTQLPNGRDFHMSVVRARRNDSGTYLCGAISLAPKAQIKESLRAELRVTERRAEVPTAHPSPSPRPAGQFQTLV
Kind of assay: bio-layer interferometry, PD-1-His (R&D); column head prints KD (nM) but the cell carries E-09, and Kd/Ka of the same row gives this number in M. (In general: In BLI a coated tip is dipped into the sample, and binding shifts an interference pattern.)

The target of assay [3] is T3, recombinant human VEGF 165 (human, UniProt P15692-4 27-191).
T3 construct: Bought protein
T3 sequence (P15692 other isoform, or with tags, fused parts or gaps limits assumed): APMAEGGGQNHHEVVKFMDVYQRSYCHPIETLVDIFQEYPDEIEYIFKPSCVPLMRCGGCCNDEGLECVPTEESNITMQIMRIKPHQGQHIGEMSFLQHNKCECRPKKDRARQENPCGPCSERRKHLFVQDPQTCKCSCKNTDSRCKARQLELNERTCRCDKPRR
Kind of assay: bio-layer interferometry, rhVEGF165.

The target of assay [4] is T2, His tagged human PD-1. Kind of assay: bio-layer interferometry, PD-1-His (R&D).
For assay [5], the target named is T3, recombinant human VEGF 165. As to the kind of experiment: cell-based or functional assay.
The target of assay [6] is T3, recombinant human VEGF 165. As to the kind of experiment: cell-based or functional assay. The source holds these as a separate data set.
Assay [7] deals with T4, recombinant human Ang2 (human, UniProt O15123 19-496).
T4 construct: also called Ang2 (R&D)
T4 sequence (looked up): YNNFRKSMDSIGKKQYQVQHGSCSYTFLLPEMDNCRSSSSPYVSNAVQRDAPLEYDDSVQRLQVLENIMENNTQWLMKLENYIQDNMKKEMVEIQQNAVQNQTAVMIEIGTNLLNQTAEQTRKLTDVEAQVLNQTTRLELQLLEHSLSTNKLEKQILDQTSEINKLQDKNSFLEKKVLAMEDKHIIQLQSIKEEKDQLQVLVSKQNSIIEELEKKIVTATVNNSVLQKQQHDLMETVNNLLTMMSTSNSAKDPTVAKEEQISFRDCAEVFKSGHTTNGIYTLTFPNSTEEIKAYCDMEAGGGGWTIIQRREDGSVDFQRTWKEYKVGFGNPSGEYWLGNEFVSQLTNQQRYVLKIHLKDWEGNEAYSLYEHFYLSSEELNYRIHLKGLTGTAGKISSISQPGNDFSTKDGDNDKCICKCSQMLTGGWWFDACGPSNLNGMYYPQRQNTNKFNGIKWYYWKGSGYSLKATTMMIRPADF
As to the kind of experiment: blocking ELISA: Ang2 coated on the plate, binding of recombinant human Tie2 is blocked. A general note: In an ELISA, binding on a coated surface is turned into a signal by an enzyme label.

Assay [8] addresses T5, His tagged human Angiopoietin-2 (human, UniProt O15123 19-496, limits assumed).
T5 construct: Antigen of the bio-layer interferometry experiments; also called Ang-2; Ang2
T5 sequence (looked up): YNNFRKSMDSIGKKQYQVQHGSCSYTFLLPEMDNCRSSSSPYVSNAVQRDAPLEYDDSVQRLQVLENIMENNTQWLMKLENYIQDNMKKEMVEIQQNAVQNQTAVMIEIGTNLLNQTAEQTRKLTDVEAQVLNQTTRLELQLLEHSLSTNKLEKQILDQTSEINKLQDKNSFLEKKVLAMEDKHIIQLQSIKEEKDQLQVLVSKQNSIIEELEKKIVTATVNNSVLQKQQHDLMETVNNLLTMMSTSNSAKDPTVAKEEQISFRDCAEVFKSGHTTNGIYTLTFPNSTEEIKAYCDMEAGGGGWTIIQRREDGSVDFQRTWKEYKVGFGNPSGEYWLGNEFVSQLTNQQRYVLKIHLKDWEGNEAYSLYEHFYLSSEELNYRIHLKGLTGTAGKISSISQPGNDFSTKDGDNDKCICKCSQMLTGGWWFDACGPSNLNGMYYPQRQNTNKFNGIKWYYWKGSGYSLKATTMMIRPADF
As to the kind of experiment: bio-layer interferometry, rhAng2-His.

Five molecules from patent US20200002439A1 (GENSUN BIOPHARMA, published 2020) can be followed below.

In general, IC50 refers to the concentration at which inhibition is half-maximal. In general, Kd refers to the constant that tells how readily two partners part at equilibrium. Broadly, the koff is the rate constant with which the complex falls apart. The term kon denotes a measure of how fast the partners come together.

T1 sequence (Q15116 25-288 limits assumed): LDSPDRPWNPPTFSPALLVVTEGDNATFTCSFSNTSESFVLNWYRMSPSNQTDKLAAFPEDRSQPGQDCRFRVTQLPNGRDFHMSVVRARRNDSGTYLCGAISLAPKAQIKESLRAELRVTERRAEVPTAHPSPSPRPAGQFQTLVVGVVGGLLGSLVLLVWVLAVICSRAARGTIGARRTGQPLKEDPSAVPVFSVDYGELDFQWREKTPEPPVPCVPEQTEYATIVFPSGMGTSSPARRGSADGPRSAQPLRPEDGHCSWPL

B1: TS-ZPT-3S(2P16) (other)
chain 1: QVQLVQSGAEVKKPGASVKVSCKASGYTFTTYYIYWVRQAPGQGLEWMGGINPGNGGTNFNEKFKIRVTMTRDTSISTAYMELSSLRSEDTAVYYCARRYHGYDGGLDYWGQGTLVTVSSASTKGPSVFPLAPCSRSTSESTAALGCLVKDYFPEPVTVSWNSGALTSGVHTFPAVLQSSGLYSLSSVVTVPSSSLGTKTYTCNVDHKPSNTKVDKRVESKYGPPCPPCPAPEFLGGPSVFLFPPKPKDTLMISRTPEVTCVVVDVSQEDPEVQFNWYVDGVEVHNAKTKPREEQFNSTYRVVSVLTVLHQDWLNGKEYKCKVSNKGLPSSIEKTISKAKGQPREPQVYTLPPSQEEMGGQEECEWDPWTCEHMGGTKNQVSLTCLVKGFYPSDIAVEWESNGQPENNYKTTPPVLDSDGSFFLYSRLTVDKSRWQEGNVFSCSVMHEALHNHYTQKSLSLSLGKGGGGSGGGGSGGGGSSDTGRPFVEMYSEIPEIIHMTEGRELVIPCRVTSPNITVTLKKFPLDTLIPDGKRIIWDSRKGFIISNATYKEIGLLTCEATVNGHLYKTNYLTHRQTNTIIDVVLSPSHGIELSVGEKLVLNCTARTELNVGIDFNWEYPSSKHQHKKLVNRDLKTQSGSEMKKFLSTLTIDGVTRSDQGLYTCAASSGLMTKKNSTFVRVHEK
chain 2: DIVLTQSPASLAVSPGQRATITCRASKSVSTSGFSYIHWYQQKPGQPPKLLIYLASNLESGVPARFSGSGSGTDFTLTINPVEANDTANYYCQHTWELPNTFGGGTKVEIKRTVAAPSVFIFPPSDEQLKSGTASVVCLLNNFYPREAKVQWKVDNALQSGNSQESVTEQDSKDSTYSLSSTLTLSKADYEKHKVYACEVTHQGLSSPVTKSFNRGEC
Turning to B1, the IC50 in assay [1] was 430 pM. This molecule also displayed a Kd in assay [2] of 4760 pM. Also, in assay [3], the Kd turned out to be 6.3 pM, the koff turned out to be 4.31e-06 s⁻¹ and the kon was 683000 M⁻¹ s⁻¹. Also, in assay [4], the koff was 0.00159 s⁻¹ and the kon was determined as 335000 M⁻¹ s⁻¹.

B2: Bi-ZP-2 (bispecific antibody, human IgG1, kappa, N297A)
heavy: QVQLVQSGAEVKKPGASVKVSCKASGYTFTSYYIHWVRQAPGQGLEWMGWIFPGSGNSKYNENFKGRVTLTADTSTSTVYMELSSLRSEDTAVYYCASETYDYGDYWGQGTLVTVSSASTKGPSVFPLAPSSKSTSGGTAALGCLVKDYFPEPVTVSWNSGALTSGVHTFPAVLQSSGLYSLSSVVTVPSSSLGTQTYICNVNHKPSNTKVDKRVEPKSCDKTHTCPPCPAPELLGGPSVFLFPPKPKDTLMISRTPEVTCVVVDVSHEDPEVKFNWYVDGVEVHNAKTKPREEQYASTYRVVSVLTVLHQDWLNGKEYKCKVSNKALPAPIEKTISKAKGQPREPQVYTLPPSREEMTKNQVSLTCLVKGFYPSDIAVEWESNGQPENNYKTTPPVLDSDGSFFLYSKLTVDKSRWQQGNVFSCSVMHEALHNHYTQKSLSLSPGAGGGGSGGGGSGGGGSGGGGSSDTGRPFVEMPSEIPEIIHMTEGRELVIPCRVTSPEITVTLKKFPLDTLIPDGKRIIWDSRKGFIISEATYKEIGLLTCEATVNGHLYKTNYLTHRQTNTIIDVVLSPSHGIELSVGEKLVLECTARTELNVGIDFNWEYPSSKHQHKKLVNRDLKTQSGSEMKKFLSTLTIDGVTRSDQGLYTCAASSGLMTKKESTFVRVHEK
light: DIQMTQSPSFLSASVGDRVTITCKASQNVGTNVAWYQQKPGKAPKALIYSASYRYSGVPSRFSGSGSGTEFTLTISSLQPEDFATYYCQQYYSYPYTFGQGTKLEIKRTVAAPSVFIFPPSDEQLKSGTASVVCLLNNFYPREAKVQWKVDNALQSGNSQESVTEQDSKDSTYSLSSTLTLSKADYEKHKVYACEVTHQGLSSPVTKSFNRGEC
As for B2, the “IC50 (read off the curve)” value in assay [5] is around 100 pM. The “IC50 (VEGF-induced luciferase signal, cell based VEGF neutralization assay on VEGFR-2 reporter cells)” value in assay [6] turned out to be 140 pM.

B3: TS-ZPT-3S(2P17) (other)
heavy: QVQLVQSGAEVKKPGASVKVSCKASGYTFTSYYIHWVRQAPGQGLEWMGWIFPGSGNSKYNENFKGRVTLTADTSTSTVYMELSSLRSEDTAVYYCASETYDYGDYWGQGTLVTVSSASTKGPSVFPLAPCSRSTSESTAALGCLVKDYFPEPVTVSWNSGALTSGVHTFPAVLQSSGLYSLSSVVTVPSSSLGTKTYTCNVDHKPSNTKVDKRVESKYGPPCPPCPAPEFLGGPSVFLFPPKPKDTLMISRTPEVTCVVVDVSQEDPEVQFNWYVDGVEVHNAKTKPREEQFNSTYRVVSVLTVLHQDWLNGKEYKCKVSNKGLPSSIEKTISKAKGQPREPQVYTLPPSQEEMGGQEECEWDPWTCEHMGGTKNQVSLTCLVKGFYPSDIAVEWESNGQPENNYKTTPPVLDSDGSFFLYSRLTVDKSRWQEGNVFSCSVMHEALHNHYTQKSLSLSLGKGGGGSGGGGSGGGGSSDTGRPFVEMYSEIPEIIHMTEGRELVIPCRVTSPNITVTLKKFPLDTLIPDGKRIIWDSRKGFIISNATYKEIGLLTCEATVNGHLYKTNYLTHRQTNTIIDVVLSPSHGIELSVGEKLVLNCTARTELNVGIDFNWEYPSSKHQHKKLVNRDLKTQSGSEMKKFLSTLTIDGVTRSDQGLYTCAASSGLMTKKNSTFVRVHEK
light: DIQMTQSPSFLSASVGDRVTITCKASQNVGTNVAWYQQKPGKAPKALIYSASYRYSGVPSRFSGSGSGTEFTLTISSLQPEDFATYYCQQYYSYPYTFGQGTKLEIKRTVAAPSVFIFPPSDEQLKSGTASVVCLLNNFYPREAKVQWKVDNALQSGNSQESVTEQDSKDSTYSLSSTLTLSKADYEKHKVYACEVTHQGLSSPVTKSFNRGEC
notes: Trispecific antagonist: 2P17 variable domains, single copy of the trebananib peptide within CH3, aflibercept domain at the carboxy terminus by a 3xG4S linker
With B3, the IC50 worked out at 370 pM in assay [1] and 9340 pM in assay [7]. Besides, the equilibrium dissociation constant (Kd) was 3710 pM in assay [2], 650 pM in assay [8] and 5.2 pM in assay [3]. For the same molecule, the koff came out at 8.66e-05 s⁻¹ in assay [8], 5.03e-06 s⁻¹ in assay [3] and 0.00146 s⁻¹ in assay [4]. Further, the on-rate (kon) stood at 134000 M⁻¹ s⁻¹ in assay [8], 974000 M⁻¹ s⁻¹ in assay [3] and 394000 M⁻¹ s⁻¹ in assay [4].

B4: TS-ZPT-3L(2P17) (other)
heavy: QVQLVQSGAEVKKPGASVKVSCKASGYTFTSYYIHWVRQAPGQGLEWMGWIFPGSGNSKYNENFKGRVTLTADTSTSTVYMELSSLRSEDTAVYYCASETYDYGDYWGQGTLVTVSSASTKGPSVFPLAPCSRSTSESTAALGCLVKDYFPEPVTVSWNSGALTSGVHTFPAVLQSSGLYSLSSVVTVPSSSLGTKTYTCNVDHKPSNTKVDKRVESKYGPPCPPCPAPEFLGGPSVFLFPPKPKDTLMISRTPEVTCVVVDVSQEDPEVQFNWYVDGVEVHNAKTKPREEQFNSTYRVVSVLTVLHQDWLNGKEYKCKVSNKGLPSSIEKTISKAKGQPREPQVYTLPPSQEEMGGAQQEECEWDPWTCEHMGSGSATGGSGSTASSGSGSATHQEECEWDPWTCEHMGGTKNQVSLTCLVKGFYPSDIAVEWESNGQPENNYKTTPPVLDSDGSFFLYSRLTVDKSRWQEGNVFSCSVMHEALHNHYTQKSLSLSLGKGGGGSGGGGSGGGGSSDTGRPFVEMYSEIPEIIHMTEGRELVIPCRVTSPNITVTLKKFPLDTLIPDGKRIIWDSRKGFIISNATYKEIGLLTCEATVNGHLYKTNYLTHRQTNTIIDVVLSPSHGIELSVGEKLVLNCTARTELNVGIDFNWEYPSSKHQHKKLVNRDLKTQSGSEMKKFLSTLTIDGVTRSDQGLYTCAASSGLMTKKNSTFVRVHEK
light: DIQMTQSPSFLSASVGDRVTITCKASQNVGTNVAWYQQKPGKAPKALIYSASYRYSGVPSRFSGSGSGTEFTLTISSLQPEDFATYYCQQYYSYPYTFGQGTKLEIKRTVAAPSVFIFPPSDEQLKSGTASVVCLLNNFYPREAKVQWKVDNALQSGNSQESVTEQDSKDSTYSLSSTLTLSKADYEKHKVYACEVTHQGLSSPVTKSFNRGEC
Consider B4, for which the IC50 in assay [1] came out at 650 pM; in assay [7], 600 pM. For the same molecule, the equilibrium dissociation constant (Kd) was 3840 pM in assay [2], 700 pM in assay [8] and 4.9 pM in assay [3]. Further, the results for the koff in assay [8], in assay [3] and in assay [4] were 9.05e-05 s⁻¹, 5e-06 s⁻¹ and 0.00147 s⁻¹, respectively. For the same molecule, the results for the kon in assay [8], in assay [3] and in assay [4] were 130000 M⁻¹ s⁻¹, 1.02e+06 M⁻¹ s⁻¹ and 382000 M⁻¹ s⁻¹, respectively.

B5: 2P17 (antibody, V domains shown)
VH: QVQLVQSGAEVKKPGASVKVSCKASGYTFTSYYIHWVRQAPGQGLEWMGWIFPGSGNSKYNENFKGRVTLTADTSTSTVYMELSSLRSEDTAVYYCASETYDYGDYWGQGTLVTVSS
VL: DIQMTQSPSFLSASVGDRVTITCKASQNVGTNVAWYQQKPGKAPKALIYSASYRYSGVPSRFSGSGSGTEFTLTISSLQPEDFATYYCQQYYSYPYTFGQGTKLEIK
notes: also called PD-06; parental antibody 2P17
Turning to B5, the IC50 in assay [1] is 370 pM.
